Consider one molecule from PMC2650391 (Molecular cell, 2009).

The experiment has as its system H3K4me peptides / ING4 PHD finger. In words: Biotinylated histone peptide pull-down, Western analysis. The experiment is classed as binding. Particulars: full-length vs PHD-deleted ING4.

B1: ING4ΔPHD: ING4 derivative lacking the PHD finger (aa 1–194) (protein)
chain: MAAGMYLEHYLDSIENLPFELQRNFQLMRDLDQRTEDLKAEIDKLATEYMSSARSLSSEEKLALLKQIQEAYGKCKEFGDDKVQLAMQTYEMVDKHIRRLDTDLARFEADLKEKQIESSDYDSSSSKGKKKGRTQKEKKAARARSKGKNSDEEAPKTAQKKLKLVRTSPEYGMPSVTFGSVHPSDVLDMPVDPN
modifications: left off: GST (inferred from the vector pGEX6P1), end not stated, state not stated
As for B1, the “recognition of methylated H3K4 peptides in pull-down” value is “does not”.
